Source: patent publication US11571480B2, “Multi-ligand drug conjugates and uses thereof” (priority 2015, dated 2023)
Numbered stars: 1 amine (or outer) side, 2 acyl side, 3 side chain; on linkers, the order of the positions; unused ones are H or OH. Bridge positions count the residues as written; N and C are the ends. Square brackets hold non-standard residues; d marks the D form. Peptide text beside a SMILES is read from it. I, II: the chains in the order shown. * marks the point of attachment. Hexanoyl(6-succinimido-3yl) = O=C1CC([*:1])C(=O)N1CCCCCC(=O)[*:2]; Pteroyl = Nc1nc2ncc(CNc3ccc(C(=O)*)cc3)nc2c(=O)[nH]1; Dolaproine = CO[C@@H]([C@@H]1CCCN1)[C@@H](C)C(=O)O; Dil = CC[C@H](C)[C@H](NC)[C@@H](CC(=O)O)OC; γGlu = O=C(O)[C@H](CCC(=O)[*:2])N[*:1]; PABC = O=C(OCc1ccc(N[*:1])cc1)[*:2]; X1 = C[C@@H](N*)[C@@H](O)c1ccccc1; Cit = NC(=O)NCCC[C@H](N)C(=O)O; NMeV = CN[C@H](C(=O)O)C(C)C

How the values were obtained:
[1] = tested on: human lung cancer cell H460; assay: Cytotoxicity test of conjugate LDC10B; format: cell-based; settings: H460, Incubation Time 30 min
Description: (§1) Culture medium: RPMI 1640 Medium, no folic acid
(§2) 1) human nasopharyngeal cancer cell line KB, melanoma cell line A375, human lung cancer cell H1299, chronic myeloid leukemia cell line K562, human lung cancer cell H460, ovarian cancer cell SKOV3, breast cancer cell line HCC1954, human gastric cancer cell N87, and human breast cancer cell SK-BR-3 were incubated at 37° C., 5% CO2 in RPMI 1640 medium containing 10% fetal bovine serum, the cells were passaged every 2-3 days.
(§3) 2) human nasopharyngeal cancer cell line KB, melanoma cell line A375, human lung cancer cell H1299, chronic myeloid leukemia cell line K562, human lung cancer cell H460, ovarian cancer cell SKOV3, breast cancer cell line HCC1954, human gastric cancer cell N87, and human breast cancer cell SK-BR-3 were plated at 1×10^3 cells per well (96-well plate) and incubated for 8-12 h at 37° C., 5% CO2.
(§4) 3) Stock solutions of LDC conjugates or controls were prepared in PBS solution. 100 μL/well of serially diluted LDC conjugates or controls was added to the test cells in the plates and incubated for 15-30 min at 37° C., 5% CO2. The culture medium in the wells was then removed by aspiration and the test cells were incubated in fresh culture medium without conjugates (150 μL/well) for 2-3 days at 37° C., 5% CO2.
(§5) 4) CellTiter 96® Aqueous One Solution Cell Proliferation Assay (Promega) was added to each well to measure the amount of […] cells, and each plate was incubated in an incubator for 1 h at 37° C., 5% CO2.
(§6) 5) Each plate was read at 490 nm on a microplate reader, and the cell survivals were compared for test cells with or without the treatment of LDC conjugates. The LDC drug concentrations that are required for 50% cell death (IC50 values) were determined.

[2] = tested on: chronic myeloid leukemia cell line K562; assay: Cytotoxicity test of conjugate LDC10B; format: cell-based; settings: K562, Incubation Time 30 min
Description: as §1, §2, §3, §4, §5, §6

melanoma cell line A375 [3] = assay: Cytotoxicity test of conjugate LDC10B; format: cell-based; settings: A375, Incubation Time 15 min
Description: as §1, §2, §3, §4, §5, §6

[4] = tested on: human gastric cancer cell N87; assay: Cytotoxicity test of conjugate LDC10B; format: cell-based; settings: N87, Incubation Time 30 min
Description: as §1, §2, §3, §4, §5, §6

[5] = tested on: human breast cancer cell SK-BR-3; assay: Cytotoxicity test of conjugate LDC10B; format: cell-based; settings: SK-BR-3, Incubation Time 30 min
Description: as §1, §2, §3, §4, §5, §6

[6] = tested on: human nasopharyngeal cancer cell line KB; assay: Cytotoxicity test of conjugate LDC10B; format: cell-based; settings: Incubation Time 15 min
Description: as §1, §2, §3, §4, §5, §6

[7] = tested on: human lung cancer cell H1299; assay: Cytotoxicity test of conjugate LDC10B; format: cell-based; settings: H1299, Incubation Time 30 min
Description: as §1, §2, §3, §4, §5, §6

[8] = tested on: ovarian cancer cell SKOV3; assay: Cytotoxicity test of conjugate LDC10B; format: cell-based, human; settings: SKOV3, Incubation Time 30 min
Description: as §1, §2, §3, §4, §5, §6

[9] = tested on: breast cancer cell line HCC1954; assay: Cytotoxicity test of conjugate LDC10B; format: cell-based, human; settings: HCC1954, Incubation Time 30 min
Description: as §1, §2, §3, §4, §5, §6

[10] = Detection of conjugate concentrations in xenograf tumor models (serum, anti-MMAE ELISA); format: in vivo, nude mice; settings: 10 mg/kg, peritoneal injection
Description: (§7) Animal: nude mice, aged 6-8 weeks, female
1) Human ovarian cancer cell SKOV3 and breast cancer cell line HCC1954 were incubated at 37° C., 5% CO2 in IMDM medium containing 10% fetal bovine serum, the cells were passaged every 2-3 days.
2) generation of tumors: 7×10^6 tumor cells were injected subcutaneously into the back of nude mice, and the mice were grouped for treatment after the tumor sizes were as large as about 100˜200 mm^3.
3) treatment: 3 mice/group, 10 mg/kg, peritoneal injection.
4) blood collection: the time for blood collection before treatment was set as 0, blood was collected at 20 min, 2 h, 4 h, and 24 h after treatment. The blood was centrifuged to collect serum, which was frozen and preserved.
5) Detection: the total amount of MMAE, LDC10B, LDC10H, as well as the MMAE metabolites of LDC10B and LDC10H in serum were detected by mice anti-MMAE ELISA kit.

Transplanted SKOV3 tumor = assay: Inhibitory assay of conjugates LDC10B and LDC10H against xenograf tumors; format: in vivo, nude mice; settings: 10 mg/kg
Description: as §7
(§8) 1) human large cell lung cancer cell H460, human lung cancer cell A549, ovarian cancer cell SKOV3, and breast cancer cell line HCC1954 were incubated at 37° C., 5% CO2 in IMDM medium containing 10% fetal bovine serum, the cells were passaged every 2-3 days.
(§9) 2) generation of tumors: 7×10^6 tumor cells were injected subcutaneously into the back of nude mice, and the mice were grouped for treatment after the tumor sizes were as large as about 100-200 mm^3.
(§10) 3) treatment: 3 mice/group, treated with LDC10B, LDC10H, as well as controls MMAE and PBS with doses of 5 and 10 mg/kg every 5 days, three injections.
(§11) 4) the physical performance, body weights and tumor sizes of the animals were monitored. The number of animal death was recorded during the experiment.

[11] = tested on: Transplanted HCC1954 tumor; assay: as above; format: in vivo, nude mice; settings: 10 mg/kg
Description: as §7, §8, §9, §10, §11

Transplanted H460 tumor = assay: as above; format: in vivo, nude mice
Description: as §7, §8, §9, §10, §11

[12] = tested on: human lung cancer cell H460; assay: Cytotoxicity test of conjugate LDC10BR; format: cell-based; settings: H460, incubated 15-30 min, then 2-3 days
Description: as §1
(§12) 1) human nasopharyngeal cancer cell line KB, melanoma cell line A375, and human lung cancer cell H460 were incubated at 37° C., 5% CO2 in RPMI 1640 medium containing 10% fetal bovine serum, the cells were passaged every 2-3 days.
(§13) 2) human nasopharyngeal cancer cell line KB, melanoma cell line A375, and human lung cancer cell H460 were plated at 1×10^3 cells per well (96-well plate) and incubated for 8-12 h at 37° C., 5% CO2.
(§14) 3) Stock solutions of LDC conjugates or control were prepared in PBS solution. 100 μL/well of serially diluted LDC conjugates or control was added to the cells in the plate and incubated for 15-30 min at 37° C., 5% CO2. The culture medium in the wells was then removed by aspiration and the cells were incubated in fresh culture medium without conjugates (150 μL/well) for 2-3 days at 37° C., 5% CO2.
(§15) 4) CellTiter 96® Aqueous One Solution Cell Proliferation Assay (Promega) was added to each well to measure the amount of […] cells, and the plate was incubated in an incubator for 1 h at 37° C., 5% CO2.
(§16) 5) the plate was read at 490 nm on a microplate reader, and the cell survivals were compared for cells with or without the treatment of LDC conjugates. The LDC drug concentrations that are required for 50% cell death (IC50 values) were determined.

melanoma cell line A375 [13] = assay: Cytotoxicity test of conjugate LDC10BR; format: cell-based; settings: A375, incubated 15-30 min, then 2-3 days
Description: as §1, §12, §13, §14, §15, §16

[14] = tested on: human nasopharyngeal cancer cell line KB; assay: Cytotoxicity test of conjugate LDC10BR; format: cell-based; settings: incubated 15-30 min, then 2-3 days
Description: as §1, §12, §13, §14, §15, §16

CC[C@H](C)[C@@H]([C@@H](CC(=O)N1CCC[C@H]1[C@H](OC)[C@@H](C)C(=O)N[C@H](C)[C@@H](O)c1ccccc1)OC)N(C)C(=O)[C@@H](NC(=O)[C@H](C(C)C)N(C)C(=O)OCc1ccc(NC(=O)[C@H](CCCNC(N)=O)NC(=O)[C@@H](NC(=O)CCCCCN2C(=O)CC(SC[C@H](NC(=O)CC[C@H](NC(=O)c3ccc(NCc4cnc5[nH]c(N)nc(=O)c5n4)cc3)C(=O)O)C(=O)N[C@@H](CCCCN)C(=O)N[C@@H](CCC(=O)O)C(=O)N[C@@H](Cc3ccccc3)C(=O)N[C@@H](CC(C)C)C(=O)N[C@@H](Cc3c[nH]cn3)C(=O)N3CCC[C@H]3C(=O)N[C@@H](CO)C(=O)N[C@@H](CCCCN)C(=O)N[C@H](C(=O)N[C@@H](CC(=O)O)C(=O)N[C@@H](CC(C)C)C(=O)N3CCC[C@H]3C(=O)N[C@@H](CCCNC(=N)N)C(=O)O)C(C)C)C2=O)C(C)C)cc1)C(C)C (stereo partly shown) [LDC10B] (I: {Pteroyl-γGlu}-CKEFLHPSKVDLPR-OH / II: V[Cit][PABC][NMeV]V[Dil][Dolaproine]-X1; linker I:1-II:N via Hexanoyl(6-succinimido-3yl))
IC50 [1]: 50.4 nM | IC50 [2]: 14.8 nM | IC50 (melanoma cell line A375 [3]): 10000 nM | IC50 [4]: 75.1 nM | IC50 [5]: 15.9 nM | IC50 [6]: 760 nM | IC50 [7]: 58.8 nM | IC50 [8]: 15.7 nM | IC50 [9]: 14.1 nM | Concentration in serum ([10]; 20 min): 10800 ng/mL | Concentration in serum ([10]; 2 h): 5035 ng/mL | Concentration in serum ([10]; 4 h): 530 ng/mL | Concentration in serum ([10]; 24 h): 117.9 ng/mL | detected in serum at 24 h after treatment (in words) ([10]; 24 h): Trace amount | Concentration in serum ([10]; Before Treatment): 0 ng/mL | Body weight of mice (Transplanted SKOV3 tumor; Before Injection): 22.96 g | Body weight of mice (Transplanted SKOV3 tumor; Five days after Injection 1): 22.44 g | Body weight of mice (Transplanted SKOV3 tumor; Five days after Injection 2): 23.23 g | Body weight of mice (Transplanted SKOV3 tumor; Five days after Injection 3): 23.53 g | Body weight of mice ([11]; Before Injection): 21.85 g | Body weight of mice ([11]; Five days after Injection 1): 22.2 g | Body weight of mice ([11]; Five days after Injection 2): 22.55 g | Body weight of mice ([11]; Five days after Injection 3): 22.38 g | Body weight of mice (Transplanted H460 tumor; 5 mg/kg, Before Injection): 23.13 g | Body weight of mice (Transplanted H460 tumor; 5 mg/kg, Five days after Injection 1): 22.53 g | Body weight of mice (Transplanted H460 tumor; 5 mg/kg, Five days after Injection 2): 22.26 g | Body weight of mice (Transplanted H460 tumor; 5 mg/kg, Five days after Injection 3): 21.65 g | Body weight of mice (Transplanted H460 tumor; 10 mg/kg, Before Injection): 22.51 g | Body weight of mice (Transplanted H460 tumor; 10 mg/kg, Five days after Injection 1): 22.53 g | Body weight of mice (Transplanted H460 tumor; 10 mg/kg, Five days after Injection 2): 23.37 g | Body weight of mice (Transplanted H460 tumor; 10 mg/kg, Five days after Injection 3): 23 g | IC50 [12]: 6800 nM | IC50 (melanoma cell line A375 [13]): 51300 nM | IC50 [14]: 2200 nM
